1 substance from patent US20100129294A1 can be followed below.

For the experiment, the target named is Aβ40 fibrils formed from a synthetic Aβ40 peptide (human). The experiment is described as follows: cell-based or functional assay.

Substance “nattokinase (from UniProt P35835 107-381) (enzyme)” came in with a rate of Aβ fibril degradation (37 C, pH 7.4, ThT binding assay) of 0.015 s⁻¹.
